Source: patent publication EP3919091A1

Biological target: PIF6-SnoopCatcher (SnoopCatcher-mCherry-PIF6(A. thaliana, amino acids: 1-100, Cys9Ser, Cys10Ser)-His6), coupled to 8-arm PEG-SnoopTag (A. thaliana) (UniProt Q8L5W7)
Test: cell-based or functional assay

UniProt Q8L5W7, sequence (Q8L5W7 other isoform, or with tags, fused parts or gaps C10S C10S): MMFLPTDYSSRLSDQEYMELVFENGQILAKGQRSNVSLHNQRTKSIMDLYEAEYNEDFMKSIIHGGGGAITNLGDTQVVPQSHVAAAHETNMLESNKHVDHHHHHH

reversible cross-linking and dissolution cycles (small amplitude oscillatory shear rheology, 660 nm / 740 nm): 5 times
Substance: PhyB-SpyCatcher (PhyB(A. thaliana, amino acids: 1-651)-SpyCatcher-His6), coupled to 8-arm PEG-SpyTag (from UniProt P14713 1-651)
